Measured values from patent US20100222401A1, “COMPOSITIONS AND METHODS FOR TREATING PATHOLOGIC ANGIOGENESIS AND VASCULAR PERMEABILITY” (priority 2008, published 2010).
“And” between values parts separate entries of the source, which are not always exact repeats. Identical values can stand only once. “Also recorded” adds a separate entry of the source.

Assays:
[1] = system: HMVEC; assay: VEGF induced migration of HMVECs (modified Boyden chamber); type: cell-based, human
[2] = system: neovascular tuft formation; assay: Laser-induced choroidal neovascularization, SecinH3; type: in vivo; conditions: wild-type mice, intravitreal injection, final concentration 21.6 μM, versus DMSO
[3] = system: ARF6; assay: VEGF induced ARF6-GTP, HMVEC, SecinH3; type: cell-based, human
[4] = system: neovascular tuft formation; assay: Oxygen-induced retinopathy, SecinH3; type: in vivo; conditions: wild-type mice, intraocular injection, final concentration 21.6 μM, versus DMSO
[5] = system: endothelial cell migration; assay: VEGF-induced endothelial cell migration by Slit constructs (FIG. 23); type: cell-based; conditions: Slit constructs 2 nM, compared with full length Slit2; listed as Slit2-D1
[6] = system: c-Src; assay: VEGF-A-stimulated c-Src phosphorylation, HMVEC; type: cell-based, human; conditions: endothelial cells (HMVEC)
[7] = system: lung endothelial cells; assay: VEGF-A endothelial cell migration assay, murine lung endothelial cells; type: cell-based, mice
[8] = system: LPS; assay: Acute lung injury, intratracheal LPS, bronchoalveolar lavage; type: in vivo, mice; conditions: versus Mock preparation
[9] = system: human microvascular endothelial cells; assay: Haptotaxis migration assay, human microvascular endothelial cells; type: cell-based; conditions: transwells coated with fibronectin and Slit2
[10] = system: lung endothelial cells; assay: In vitro permeability assay (Transwell, HRP); type: cell-based, mice; conditions: Robo4^+/+ endothelial cell monolayers, pre-treatment with Slit2
[11] = system: neovascularization of the retina; assay: Retinopathy of prematurity: percent neovascularization of the retina (FIG. 12); type: in vivo; conditions: wildtype mice, Slit versus Mock preparation, N=6, P<0.003
[12] = system: lung endothelial cells; assay: VEGF-A tube formation assay, murine lung endothelial cells; type: cell-based, mice
[13] = system: Rac1; assay: VEGF-A-dependent Rac1 activation, HMVEC; type: cell-based, human; conditions: endothelial cell monolayers (HMVEC)
[14] = system: ARF6; assay: ARF6 activation assay (GST-GGA3), endothelial cells on VEGF-165; type: cell-based; conditions: endothelial cells on dishes coated with VEGF-165 and Slit2
[15] = system: Cdc42; assay: Cdc42-GTP levels, endothelial cells on fibronectin; type: cell-based; conditions: presence of Slit2
[16] = system: Rac; assay: VEGF-induced Rac activation in HUVEC; type: cell-based, human; conditions: GST-PBD pull down
[17] = system: retinal endothelium; assay: VEGF induced retinal permeability (Evans Blue), Slit2; type: in vivo, mice; conditions: intravitreal co-injection
[18] = system: Avian Flu Virus, strain H5N1/Duck/Mn/1525/81; parameters: species or system BALB/c mice; conditions: mouse, in vivo
[19] = system: choroidal neovascularization; assay: Laser-induced choroidal neovascularization (CNV), Slit2N; type: in vivo; conditions: Robo4^+/+ mice, intravitreal administration
[20] = system: VEGFR2; assay: VEGF-A-induced VEGFR2 phosphorylation, HMVEC; type: cell-based, human; conditions: 5 minutes
[21] = system: Rac; assay: Rac-GTP levels, endothelial cells on fibronectin; type: cell-based; conditions: endothelial cells on fibronectin and Slit2
[22] = system: murine lung endothelial cells; assay: bFGF-induced tube formation on matrigel; type: cell-based
[23] = system: pathological angiogenesis; assay: Oxygen-induced retinopathy (OIR), Slit2N; type: in vivo; conditions: Robo4^+/+ mice, intravitreal administration
[24] = system: endothelial cells; assay: Spreading assay, endothelial cells; type: cell-based, human
[25] = system: dermal permeability; assay: Miles assay / VEGF-induced dermal permeability; type: in vivo; conditions: Robo4^+/+ mice, concomitant intradermal Slit2
[26] = system: Rho; assay: Rho-GTP levels, endothelial cells on fibronectin; type: cell-based; conditions: presence of Slit2
[27] = system: ARF6; assay: ARF6 activation assay (GST-GGA3), endothelial cells on fibronectin; type: cell-based; conditions: endothelial cells on fibronectin and Slit2
[28] = endothelial cells pre-treated with inhibitor or vehicle (Example 28)

COc1nc(-c2ccc3c(c2)OCO3)n(-c2ccc(NC(=O)CSc3ccccc3)cc2)n1 [SecinH3]
VEGF-165 induced cell migration response ([1]; HMVEC, 15 ng/ml VEGF-165, 15 μM Secin-H3, 3 h): attenuated; also recorded: inhibits | VEGF-induced cell migration [1, 28]: prevented | neovascular tuft formation in CNV [2]: inhibited | accumulation of ARF6-GTP ([3]; HMVEC, 20 ng/ml VEGF, 50 μM Secin-H3): blocks; also recorded: inhibits | VEGF-induced Arf6 activation [3, 28]: prevented | neovascular tuft formation in OIR [4]: inhibited

B1: SlitD1 (protein)
chain: ILNKVAPQACPAQCSCSGSTVDCHGLALRSVPRNIPRNTERLDLNGNNITRITKTDFAGLRHLRVLQLMENKISTIERGAFQDLKELERLRLNRNHLQLFPELLFLGTAKLYRLDLSENQIQAIPRKAFRGAVDIKNLQLDYNQISCIEDGAFRALRDLEVLTLNNNNITRLSVASFNHMPKLRTFRLHSNNLYCDCHLAWLSDWLRQRPRVGLYTQCMGPSHLRGHNVAEVQKREFVCSGHQS
Inhibition of VEGF mediated endothelial cell migration [5]: active

B2: Slit2N (protein)
chain: QACPAQCSCSGSTVDCHGLALRSVPRNIPRNTERLDLNGNNITRITKTDFAGLRHLRVLQLMENKISTIERGAFQDLKELERLRLNRNHLQLFPELLFLGTAKLYRLDLSENQIQAIPRKAFRGAVDIKNLQLDYNQISCIEDGAFRALRDLEVLTLNNNNITRLSVASFNHMPKLRTFRLHSNNLYCDCHLAWLSDWLRQRPRVGLYTQCMGPSHLRGHNVAEVQKREFVCSGHQSFMAPSCSVLHCPAACTCSNNIVDCRGKGLTEIPTNLPETITEIRLEQNTIKVIPPGAFSPYKKLRRIDLSNNQISELAPDAFQGLRSLNSLVLYGNKITELPKSLFEGLFSLQLLLLNANKINCLRVDAFQDLHNLNLLSLYDNKLQTIAKGTFSPLRAIQTMHLAQNPFICDCHLKWLADYLHTNPIETSGARCTSPRRLANKRIGQIKSKKFRCSAKEQYFIPGTEDYRSKLSGDCFADLACPEKCRCEGTTVDCSNQKLNKIPEHIPQYTAELRLNNNEFTVLEATGIFKKLPQLRKINFSNNKITDIEEGAFEGASGVNEILLTSNRLENVQHKMFKGLESLKTLMLRSNRITCVGNDSFIGLSSVRLLSLYDNQITTVAPGAFDTLHSLSTLNLLANPFNCNCYLAWLGEWLRKKRIVTGNPRCQKPYFLKEIPIQDVAIQDFTCDDGNDDNSCSPLSRCPTECTCLDTVVRCSNKGLKVLPKGIPRDVTELYLDGNQFTLVPKELSNYKHLTLIDLSNNRISTLSNQSFSNMTQLLTLILSYNRLRCIPPRTFDGLKSLRLLSLHGNDISVVPEGAFNDLSALSHLAIGANPLYCDCNMQWLSDWVKSEYKEPGIARCAGPGEMADKLLLTTPSKKFTCQGPVDVNILAKCNPCLSNPCKNDGTCNSDPVDFYRCTCPYGFKGQDCDVPIHACISNPCKHGGTCHLKEGEEDGFWCICADGFEGENCEVNVDDCEDNDCENNSTCVDGINNYTCLCPPEYTGELCEEKLDFCAQDLNPCQHDSKCILTPKGFKCDCTPGYVGEHCDIDFDDCQDNKCKNGAHCTDAVNGYTCICPEGYSGLFCEFSPP
VEGF-A-stimulated phosphorylation of c-Src [6]: reduced | VEGF-A-dependent endothelial cell migration ([7]; Robo4^+/+ endothelial cells): inhibited | VEGF-A-dependent endothelial cell migration, inhibitory activity ([7]; Robo4^AP/AP endothelial cells): lost | concentration of inflammatory cells in bronchoalveolar lavages (BAL) [8]: significantly lower | concentration of protein in bronchoalveolar lavages (BAL) [8]: significantly lower | concentration of inflammatory cells in bronchoalveolar lavages (BAL) ([8]; listed as Slit protein): significantly reduced | concentration of protein in bronchoalveolar lavages (BAL) ([8]; listed as Slit protein): significantly reduced | fibronectin-driven cell migration (haptotaxis) [9]: blocked | VEGF-A-enhanced accumulation of HRP in the lower chamber [10]: prevented | reduction in neovascularization [11]: 63% | VEGF-A-dependent tube formation ([12]; Robo4^+/+ endothelial cells): inhibited | VEGF-A-dependent tube formation, inhibitory activity ([12]; Robo4^AP/AP endothelial cells): lost | VEGF-A-dependent Rac1 activation [13]: prevented | VEGF-165-induced ARF6 activation [14]: prevented | Cdc42 activation [15]: significantly reduced | VEGF-stimulated Rac activation [16]: completely suppressed | VEGF-A induced leak of Evans Blue from the retinal blood vessels ([17]; Robo4^+/+ mice): suppressed | VEGF-A induced leak of Evans Blue from the retinal blood vessels ([17]; Robo4^AP/AP mice): refractory | mortality [18]: lower mortality | survivability rate [18]: 25% and 50% | Av. Wt. ([18]; iv): 17.4 grams and 18.5 grams and 16.0 grams and 15.4 grams | angiogenesis in laser-induced choroidal neovascularization [19]: reduced | VEGF-A-induced VEGFR2 phosphorylation [20]: no effect | fibronectin-induced increase in Rac-GTP [21]: efficiently blocked | bFGF-induced endothelial tube formation [22]: blocked | angiogenesis in oxygen-induced retinopathy [23]: markedly reduced | cell spreading on fibronectin [24]: markedly inhibited | cellular protrusive activity stimulated by integrin ligation (spreading) ([24]; endothelial cells on 9-11 fragment of fibronectin and Slit2): suppressed | VEGF-A-stimulated leak of Evans Blue into the dermis [25]: prevented | Rho activation [26]: unaltered | fibronectin-induced increase in ARF6-GTP [27]: efficiently blocked
